The target in the data set is STAT3 (UniProt P40763 127-722). The data set is described as follows: EMSA; no compound; Signosis EMSA Assay Kit, manufacturer's protocol with minor modifications; buffer, salt, pH and temperature not stated. The following applies: chain copies: 2; label: 5' biotin on both strands; blunt.
STAT3, sequence (P40763 127-722): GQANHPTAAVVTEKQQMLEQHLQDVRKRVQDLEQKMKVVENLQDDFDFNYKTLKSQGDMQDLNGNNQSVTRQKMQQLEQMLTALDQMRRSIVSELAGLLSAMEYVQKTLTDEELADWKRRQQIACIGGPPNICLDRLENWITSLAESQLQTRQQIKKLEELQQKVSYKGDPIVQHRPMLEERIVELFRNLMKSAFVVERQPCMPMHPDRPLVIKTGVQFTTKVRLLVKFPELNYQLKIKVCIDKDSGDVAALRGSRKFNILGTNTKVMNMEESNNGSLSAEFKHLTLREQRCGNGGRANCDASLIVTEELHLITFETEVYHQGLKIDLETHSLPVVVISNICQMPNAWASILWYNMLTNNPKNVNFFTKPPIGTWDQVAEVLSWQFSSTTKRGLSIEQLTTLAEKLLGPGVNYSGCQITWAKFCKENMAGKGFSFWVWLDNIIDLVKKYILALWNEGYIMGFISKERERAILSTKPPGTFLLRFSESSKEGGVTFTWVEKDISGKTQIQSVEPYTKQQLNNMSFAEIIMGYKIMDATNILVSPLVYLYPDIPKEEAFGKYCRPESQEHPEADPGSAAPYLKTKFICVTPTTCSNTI

B1: TET1-CPG probe (dsDNA)
DNA 1: CCGGTAGGCGTCCTCCGCGACCCGC
DNA 2: GCGGGTCGCGGAGGACGCCTACCGG
For the molecule B1, the binding result is reported as “binds”.

For the origin of these results see paper PMC5727390, “Targeted inhibition of STAT/TET1 axis as a therapeutic strategy for acute myeloid leukemia”.
